Results: patent US20210079444A1, “LABEL FREE DETECTION OF PROTEASE ACTIVITY” (VIB VZW, priority 2017, published 2021)
Square brackets hold non-standard residues; d marks the D form. Ends that are not written are not given here. Bpa = N[C@@H](Cc1ccc(C(=O)c2ccccc2)cc1)C(=O)O; Phe(4-CN) = N#Cc1ccc(C[C@H](N)C(=O)O)cc1

What was measured:
trypsin [1] = biological target: T1, trypsin (Sus scrofa, UniProt P00761); assay: Bulk (in-solution) trypsin digestion of peptide substrate, RP-HPLC separation and MALDI-TOF mass spectrometry, SERS of separated fractions; type: biochemical; details: for change of 1003 cm^-1 phenylalanine SERS peak in cleaved fraction after trypsin cleavage: cleaved vs uncleaved fractions labelled on gold nanodome chips; for extent of substrate digestion by trypsin (RP-HPLC/MALDI-TOF): peptide 100 μg/ml, trypsin 3.3 μg/ml (1/30 w/w), 50 mM ammonium-bicarbonate pH 7.8, 37° C.
T1 construct: purchased Promega V5111
Protocol: As a first step, the activity of the protease on the substrate in solution was monitored. RP-HPLC was used to separate the substrate from the digestion products, which are subsequently labelled on a nanodome platform. From the difference spectrum, the characteristic peaks of the cleaved-off and remaining fractions are derived. FIG. 4(a2-a4) depicts the results of this experiment for trypsin and its CALNNYGGGGVRGNF (100 μg/ml) (SEQ ID NO:3) substrate. The peptide was incubated with trypsin (3.3 μg/ml) at a 1/30 (w/w) ratio in a 50 mM ammonium-bicarbonate (pH 7.8) buffer in water, and separated with RP-HPLC (FIG. 4(a2)) after 0, 30 and 90 minutes of incubation. The RP-HPLC-separated peptides and their fragments were identified using MALDI-TOF mass spectrometry. […] The dimer formation is a consequence of the oxidation of the cysteine thiol groups upon which a disulphide bond is formed between two peptides. […] Subsequently, nanodome chips were labeled with cleaved and uncleaved fractions. […] Furthermore, the peaks at 618 cm^−1, 1030 cm^−1 and 1207 cm^−1 show a partial decrease, although their signal to noise ratio is low. All these peaks correspond to those attributed to phenylalanine (Table 1). From this experiment, it is concluded that the ratio between the 1003 cm^−1 peak and the 829-860 cm^−1 peaks (I1003/I829-860) is a correct metric for IF/IY, the cleavage of the substrate by trypsin.
The activity of trypsin on the peptides with unnatural aromatic amino acids was verified using HPLC/mass spectrometry, showing complete digestion of 100 μg/ml peptide after 1 hour incubation with a 4 μg/ml Trypsin concentration. Subsequently, cleaved and uncleaved fractions were labelled on a nanodome SERS substrate.

endoproteinase Glu-C = endoproteinase Glu-C (Staphylococcus aureus, UniProt P0C1U8)
Protocol: Peptides were first dissolved to 100 μg/μl in DMF and further diluted to 100 μg/ml in either a 10% acetonitrile/water mixture for labelling or a 50 mM ammonium bicarbonate buffer (pH 7.8) for bulk digestion experiments. Prior to labelling the chips with the peptides, they were cleaved into pieces of a few mm^2 and cleaned by sonication in acetone, rinsed with isopropyl alcohol and water and dried with under a stream of nitrogen. Next, remaining organic contaminants were removed in an 02 plasma, which also renders the surface hydrophilic (120 s, PVA-TEPLA GIGAbatch 310 M, 6000 sccm O2, 600 W, 750 mTorr). Immediately afterwards, the chips were immersed in separate wells of a polypropylene 96-well plate, using 100 μl of a 100 μg/ml peptide solution in 10% acetonitrile in water. After overnight incubation, the chips were rinsed excessively with deionized water. […]
After incubation for a specific time at 37° C., 750 μl of a solution with 100 μg/ml substrate and 3.3 μg/ml trypsin or endoproteinase Glu-C in 50-100 mM ammonium bicarbonate was injected in a C-18 reversed phase high-performance liquid chromatography column (Macherey-Nagel) and eluted by a water/acetonitrile gradient (Akta Purifier, GE). The molecular weight of separated fractions was determined using matrix-assisted laser desorption/ionisation time-of-flight mass spectrometry (Bruker MALDI-TOF).

trypsin [2] = biological target: T1, trypsin; assay: Trypsin hydrolysis of unbound peptide observed through SERS spectra of a non-separated mixture; type: biochemical; details: peptide 100 μg/ml, trypsin 2 μg/ml, 2 hours of incubation, no RP-HPLC separation
Text: Apart from a thiol-gold interaction, N-terminal primary amines can also lead to a charge-based adsorption on metal surfaces (ref 39). This effect may be additive in the case of cysteine, but could lead to the adsorption of unwanted amino acids on the gold surface. In a second set of in-solution experiments, a similar trypsin was run—CALNNYGGGGVRGNF (SEQ ID NO:3) assay without separating the fractions by RP-HPLC (FIG. 5). One nanodome chip was labelled with a reference solution of the peptide (100 μg/ml), another with a solution of peptide (100 μg/ml) and trypsin (2 μg/ml) after 2 hours of incubation. […] Furthermore, the SERS and difference SERS-spectra shown in FIG. 5 confirm the findings of the RP-HPLC experiment in FIG. 4(a).
(§1) Spectra were acquired on a WITec Alpha 300 R+ confocal Raman microscope equipped with spectrometer using a 600 lpmm grating, a −70° C. cooled CCD camera (Andor iDus 401 BR-DD) and a 785 nm diode laser (Toptica, XTRA II). Raman spectra of the peptide powders were acquired using a Zeiss 100×/0.9 EC Epiplan NEOFLUAR; ∞/0 objective and a laser power of 100 mW, measured before the objective. SERS spectra were acquired through a Zeiss 63×/1.0 W-Plan Apochromat ∞/0 objective with 2 mW laser power. […]

trypsin [3] = biological target: T1, trypsin; assay: SERS-monitored trypsin hydrolysis of gold-nanodome bound peptides (with and without ovomucoid inhibitor); type: biochemical; details: for decrease of SERS intensity ratio I1003/I829-860: gold-nanodome bound peptide
Protocol: In a third experimental setup, three CALNNYGGGGVRGNF (SEQ ID NO:3) labelled nanodome chips were incubated in a buffer without trypsin, with trypsin and with trypsin plus an ovomucoid inhibitor for 45 minutes (FIG. 6). […] On the chip with trypsin only, the surface bound peptides are cleaved, resulting in a decrease of 11003/1829-860 by 40-48%. […] Two possible origins are considered for the remaining signal at 1003 cm^−1. […] More likely, the remaining signal originates from peptides that are not accessible to the protease due to steric hindrance. This can be a result of a too dense monolayer of peptides (refs 11, 23) or inaccessible parts of the nanodome geometry. Especially in the latter case, the inaccessible peptides are probably located in the nanodome gaps and will contribute disproportionally strong to the SERS signal.
Spectra were acquired on a WITec Alpha 300 R+ confocal Raman microscope equipped with spectrometer using a 600 lpmm grating, a −70° C. cooled CCD camera (Andor iDus 401 BR-DD) and a 785 nm diode laser (Toptica, XTRA II). Raman spectra of the peptide powders were acquired using a Zeiss 100×/0.9 EC Epiplan NEOFLUAR; ∞/0 objective and a laser power of 100 mW, measured before the objective. SERS spectra were acquired through a Zeiss 63×/1.0 W-Plan Apochromat ∞/0 objective with 2 mW laser power. For real-time monitoring of enzymatic activity, the chip was placed in a metal petri dish filled with 1 ml 50 mM ammonium bicarbonate buffer (pH 7.8) inside a stage-top incubator at 37° C. (Okolab). Because of signal degradation upon laser illumination, each trace is the median spectrum of a spatially distributed map of 10×10 pixels in a 20×20 μm area with an integration time of 1 s on each point. In the real-time assay, every next trace was mapped on a different location on the SERS platform. […]
(§2) Starting from the 10×10 individual spectra, WITec Project Four® was used for removing cosmic rays. […] 11003 and 1829-860 were calculated by integrating the peaks at their respective positions and subtracting the background with a linear fit for the individual spectra. […]

trypsin [4] = biological target: T1, trypsin; assay: Real-time SERS observation of trypsin activity on gold-nanodome bound peptide; type: biochemical
Protocol: Finally, CALNNYGGGGVRGNF (SEQ ID NO:3) labelled chips were incubated with trypsin under the Raman microscope for a real-time acquisition of SERS spectra. […] A new spectrum was acquired every 2-3 minutes with an integration time of 100 seconds. A relative decrease of I1003 versus the peaks at 829, 860, 948, 1248, 1330, 1603 and 1677 cm^−1 is visible within the first minutes after adding 0.2 μg/ml trypsin (8.6 nM) to a total volume of 1 ml (8.6 pmol), in agreement with Table 1 and the earlier experiments described in this work. SERS spectra after 2 minutes and 30 minutes of trypsin incubation show a further reduction of I1003 and I1206 with increasing incubation time (FIG. 7 (b)). […]
as §1, with “objective.” for “objective. SERS spectra were acquired through a Zeiss 63×/1.0 W-Plan Apochromat ∞/0 objective with 2 mW laser power.”
as §2

T1 sequence (P00761 9-231): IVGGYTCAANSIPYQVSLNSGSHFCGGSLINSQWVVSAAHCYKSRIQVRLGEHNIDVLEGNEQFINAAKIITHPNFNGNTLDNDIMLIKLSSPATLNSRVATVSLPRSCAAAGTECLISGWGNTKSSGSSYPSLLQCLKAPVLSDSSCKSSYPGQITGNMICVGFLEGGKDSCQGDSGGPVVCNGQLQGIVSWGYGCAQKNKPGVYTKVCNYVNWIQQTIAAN
Sequence of endoproteinase Glu-C (P0C1U8 69-336): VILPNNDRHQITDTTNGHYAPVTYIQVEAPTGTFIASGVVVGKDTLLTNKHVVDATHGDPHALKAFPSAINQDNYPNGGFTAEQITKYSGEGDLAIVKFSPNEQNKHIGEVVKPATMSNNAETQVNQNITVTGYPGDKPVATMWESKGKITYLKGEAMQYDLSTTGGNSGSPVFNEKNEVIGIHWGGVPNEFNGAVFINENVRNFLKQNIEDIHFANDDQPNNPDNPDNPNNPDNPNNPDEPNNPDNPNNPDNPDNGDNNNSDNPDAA

CALNN(bzF)GGGGVRGNF (CALNN[Bpa]GGGGVRGNF) [trypsin substrate analogue, tyrosine replaced by benzoyl-phenylalanine]
change of 1003 cm^-1 phenylalanine SERS peak in cleaved fraction after trypsin cleavage (trypsin [1]): decrease

CALNN(cnF)GGGGVRGNF (CALNN[Phe(4-CN)]GGGGVRGNF) [trypsin substrate analogue, tyrosine replaced by 4-cyano-phenylalanine]
change of 1003 cm^-1 phenylalanine SERS peak in cleaved fraction after trypsin cleavage (trypsin [1]): complete disappearance

CALNNYGGGGNNESWH
conversion of substrate to products by endoproteinase Glu-C (RP-HPLC/mass spectrometry) (endoproteinase Glu-C; 4 hours of incubation, peptide 100 μg/ml, endoproteinase Glu-C 3.3 μg/ml): almost full conversion
change of 754 cm^-1 and 1356 cm^-1 (tryptophan) SERS peaks upon endoproteinase Glu-C cleavage (endoproteinase Glu-C; cleaved peptide vs uncleaved dimer bound to nanodome chips): disappearance

CALNNYGGGGVRGNF (trypsin substrate) [trypsin substrate peptide with Tyr and Phe SERS reporters]
extent of substrate digestion by trypsin (RP-HPLC/MALDI-TOF) (trypsin [1]; 30 minutes incubation): almost fully digested
extent of substrate digestion by trypsin (RP-HPLC/MALDI-TOF) (trypsin [1]; 90 minutes incubation): fully cleaved
change of 1003 cm^-1 phenylalanine SERS peak in cleaved fraction after trypsin cleavage (trypsin [1]): full disappearance
extent of digestion by trypsin, from lack of 1003 cm^-1 phenylalanine SERS peak (trypsin [2]): fully digested
decrease of SERS intensity ratio I1003/I829-860 (trypsin [3]; 45 minutes incubation): 40-48%
decrease of SERS intensity ratio I1003/I829-860 (trypsin [3]; trypsin): ≤ 53%
time course of digestion of gold-bound peptide in real-time monitoring (trypsin [4]; 8.6 nM trypsin concentration): immediate digestion within the first two minutes
cleavage of accessible surface-bound substrate in real time (I1003/I829-860 versus time) (trypsin [4]; trypsin concentrations ranging from 1 to 0.2 μg/ml, 37° C., spectrum every 2-3 minutes): most of the accessible substrate was cleaved within the time-span of the first measurement

B1: ovomucoid inhibitor: Ovomucoid (Type II-0) Trypsin inhibitor from chicken egg white (Sigma, T9253) (protein, UniProt P01005 25-210, looked up)
Ovomucoid: AEVDCSRFPNATDKEGKDVLVCNKDLRPICGTDGVTYTNDCLLCAYSIEFGTNISKEHDGECKETVPMNCSSYANTTSEDGKVMVLCNRAFNPVCGTDGVTYDNECLLCAHKVEQGASVDKRHDGGCRKELAAVSVDCSEYPKPDCTAEDRPLCGSDNKTYGNKCNFCNAVVESNGTLTLSHFGKC
inhibition of tryptic cleavage of surface-bound peptide (SERS spectrum vs reference chip) (trypsin [3]; trypsin plus ovomucoid inhibitor, 45 minutes, inhibitor 100 μg/ml, substrate CALNNYGGGGVRGNF on nanodome chip): full blockade of tryptic cleavage
